Results from paper PMC10397247.
Each block holds one binder with its values, some of them ahead of it.

Key:
P6p = target: T1, P6p; experiment: two-hybrid library CCmax; settings: mean of both orientations;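 note: natural log of median RNA to DNA barcode read ratio; higher means stronger binding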
T1 chain: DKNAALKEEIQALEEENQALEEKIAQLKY

Core_NINN-es_KKEK = target: T2, Core_NINN-es_KKEK; experiment: two-hybrid library CCmax; settings: mean of both orientations;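 note: natural log of median RNA to DNA barcode read ratio; higher means stronger binding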
T2 chain: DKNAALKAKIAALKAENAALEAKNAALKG

4H477-bA = target: T3, 4H477-bA; experiment: two-hybrid library CCNG1;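 note: natural log of median RNA to DNA barcode read ratio; higher means stronger binding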
T3 chain: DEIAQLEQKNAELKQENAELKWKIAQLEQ

4H319-bA = target: T4, 4H319-bA; experiment: two-hybrid library CCNG1;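 note: natural log of median RNA to DNA barcode read ratio; higher means stronger binding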
T4 chain: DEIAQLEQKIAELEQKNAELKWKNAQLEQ

4H2503-bA = target: T5, 4H2503-bA; experiment: two-hybrid library CCNG1;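 note: natural log of median RNA to DNA barcode read ratio; higher means stronger binding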
T5 chain: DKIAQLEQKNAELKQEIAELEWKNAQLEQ

4H492-bA = target: T6, 4H492-bA; experiment: two-hybrid library CCNG1;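 note: natural log of median RNA to DNA barcode read ratio; higher means stronger binding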
T6 chain: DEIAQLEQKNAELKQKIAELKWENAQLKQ

4H2134-bA = target: T7, 4H2134-bA; experiment: two-hybrid library CCNG1
T7 chain: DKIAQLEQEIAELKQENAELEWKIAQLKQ

4H121-bA = target: T8, 4H121-bA; experiment: two-hybrid library CCNG1
T8 chain: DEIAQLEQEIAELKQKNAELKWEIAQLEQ

4H2692-bA = target: T9, 4H2692-bA; experiment: two-hybrid library CCNG1
T9 chain: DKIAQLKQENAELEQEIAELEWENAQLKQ

4H2223-bA = target: T10, 4H2223-bA; experiment: two-hybrid library CCNG1
T10 chain: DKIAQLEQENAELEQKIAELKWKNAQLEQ

4H2717-bA = target: T11, 4H2717-bA; experiment: two-hybrid library CCNG1
T11 chain: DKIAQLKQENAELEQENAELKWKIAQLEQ

4H2143-bA = target: T12, 4H2143-bA; experiment: two-hybrid library CCNG1
T12 chain: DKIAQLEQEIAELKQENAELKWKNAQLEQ

4H2438-bA = target: T13, 4H2438-bA; experiment: two-hybrid library CCNG1
T13 chain: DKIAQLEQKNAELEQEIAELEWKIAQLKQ

4H2915-bA = target: T14, 4H2915-bA; experiment: two-hybrid library CCNG1
T14 chain: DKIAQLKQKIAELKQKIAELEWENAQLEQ

4H182-bA = target: T15, 4H182-bA; experiment: two-hybrid library CCNG1
T15 chain: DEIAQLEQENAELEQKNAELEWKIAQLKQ

4H3057-bA = target: T16, 4H3057-bA; experiment: two-hybrid library CCNG1
T16 chain: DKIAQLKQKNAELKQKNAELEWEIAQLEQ

4H2588-bA = target: T17, 4H2588-bA; experiment: two-hybrid library CCNG1
T17 chain: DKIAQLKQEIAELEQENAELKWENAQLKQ

4H741-bA = target: T18, 4H741-bA; experiment: two-hybrid library CCNG1
T18 chain: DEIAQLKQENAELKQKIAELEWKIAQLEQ

4H2839-bA = target: T19, 4H2839-bA; experiment: two-hybrid library CCNG1
T19 chain: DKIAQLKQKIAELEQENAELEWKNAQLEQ

4H2473-bA = target: T20, 4H2473-bA; experiment: two-hybrid library CCNG1
T20 chain: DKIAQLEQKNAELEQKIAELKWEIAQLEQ

4H3277-bA = target: T21, 4H3277-bA; experiment: two-hybrid library CCNG1
T21 chain: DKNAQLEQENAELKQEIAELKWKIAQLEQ

4H40-bA = target: T22, 4H40-bA; experiment: two-hybrid library CCNG1
T22 chain: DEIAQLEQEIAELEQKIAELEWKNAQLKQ

4H348-bA = target: T23, 4H348-bA; experiment: two-hybrid library CCNG1
T23 chain: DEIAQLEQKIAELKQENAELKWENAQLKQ

4H2444-bA = target: T24, 4H2444-bA; experiment: two-hybrid library CCNG1
T24 chain: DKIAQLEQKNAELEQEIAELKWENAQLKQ

4H2619-bN = target: T25, 4H2619-bN; experiment: two-hybrid library CCNG1
T25 chain: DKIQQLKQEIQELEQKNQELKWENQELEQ

4H344-bN = target: T26, 4H344-bN; experiment: two-hybrid library CCNG1
T26 chain: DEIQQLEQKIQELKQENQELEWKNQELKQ

4H2745-bN = target: T27, 4H2745-bN; experiment: two-hybrid library CCNG1
T27 chain: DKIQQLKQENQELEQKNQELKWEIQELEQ

4H3961-bN = target: T28, 4H3961-bN; experiment: two-hybrid library CCNG1; settings: mean of both orientations
T28 chain: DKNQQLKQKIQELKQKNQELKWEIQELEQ

4H2568-bN = target: T29, 4H2568-bN; experiment: two-hybrid library CCNG1
T29 chain: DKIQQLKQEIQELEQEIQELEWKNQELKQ

4H1046-bN = target: T30, 4H1046-bN; experiment: two-hybrid library CCNG1; settings: mean of both orientations
T30 chain: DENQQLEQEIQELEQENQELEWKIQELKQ

4H1072-bN = target: T31, 4H1072-bN; experiment: two-hybrid library CCNG1
T31 chain: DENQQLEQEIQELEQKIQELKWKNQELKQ

4H3907-bN = target: T32, 4H3907-bN; experiment: two-hybrid library CCNG1
T32 chain: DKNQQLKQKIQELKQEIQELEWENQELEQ

4H363-bN = target: T33, 4H363-bN; experiment: two-hybrid library CCNG1
T33 chain: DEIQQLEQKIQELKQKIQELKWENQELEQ

4H470-bN = target: T34, 4H470-bN; experiment: two-hybrid library CCNG1
T34 chain: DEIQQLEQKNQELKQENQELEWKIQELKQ

4H2691-bH = target: T35, 4H2691-bH; experiment: two-hybrid library CCNG1
T35 chain: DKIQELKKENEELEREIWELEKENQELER

4H496-bH = target: T36, 4H496-bH; experiment: two-hybrid library CCNG1
T36 chain: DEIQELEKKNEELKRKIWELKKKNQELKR

4H1347-bH = target: T37, 4H1347-bH; experiment: two-hybrid library CCNG1
T37 chain: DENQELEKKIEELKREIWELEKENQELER

4H145-bH = target: T38, 4H145-bH; experiment: two-hybrid library CCNG1
T38 chain: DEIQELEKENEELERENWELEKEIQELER

4H342-bH = target: T39, 4H342-bH; experiment: two-hybrid library CCNG1
T39 chain: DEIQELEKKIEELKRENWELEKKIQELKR

4H3632-bH = target: T40, 4H3632-bH; experiment: two-hybrid library CCNG1
T40 chain: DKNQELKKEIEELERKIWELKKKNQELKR

4H2619-bH = target: T41, 4H2619-bH; experiment: two-hybrid library CCNG1
T41 chain: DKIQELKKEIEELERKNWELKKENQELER

4H3070-bH = target: T42, 4H3070-bH; experiment: two-hybrid library CCNG1
T42 chain: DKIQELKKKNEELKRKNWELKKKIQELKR

O14-bA = target: T43, O14-bA; experiment: two-hybrid library CCNG1
T43 chain: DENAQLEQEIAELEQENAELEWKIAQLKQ

O5-bA = target: T44, O5-bA; experiment: two-hybrid library CCNG1
T44 chain: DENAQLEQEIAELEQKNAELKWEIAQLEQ

O10-bA = target: T45, O10-bA; experiment: two-hybrid library CCNG1
T45 chain: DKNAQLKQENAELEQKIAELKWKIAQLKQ

O7-bA = target: T46, O7-bA; experiment: two-hybrid library CCNG1
T46 chain: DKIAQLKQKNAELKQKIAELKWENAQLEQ

O11-bA = target: T47, O11-bA; experiment: two-hybrid library CCNG1
T47 chain: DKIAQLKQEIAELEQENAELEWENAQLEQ

O8-bA = target: T48, O8-bA; experiment: two-hybrid library CCNG1
T48 chain: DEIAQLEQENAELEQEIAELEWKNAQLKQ

O1-bA = target: T49, O1-bA; experiment: two-hybrid library CCNG1
T49 chain: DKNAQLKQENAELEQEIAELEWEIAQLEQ

O2-bA = target: T50, O2-bA; experiment: two-hybrid library CCNG1
T50 chain: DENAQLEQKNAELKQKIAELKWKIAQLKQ

O3-bA = target: T51, O3-bA; experiment: two-hybrid library CCNG1
T51 chain: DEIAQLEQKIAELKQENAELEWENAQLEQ

O16-bA = target: T52, O16-bA; experiment: two-hybrid library CCNG1
T52 chain: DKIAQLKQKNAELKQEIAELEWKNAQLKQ

O12-bA = target: T53, O12-bA; experiment: two-hybrid library CCNG1
T53 chain: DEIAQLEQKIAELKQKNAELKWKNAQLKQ

O15-bA = target: T54, O15-bA; experiment: two-hybrid library CCNG1
T54 chain: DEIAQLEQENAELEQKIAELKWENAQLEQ

O4-bA = target: T55, O4-bA; experiment: two-hybrid library CCNG1
T55 chain: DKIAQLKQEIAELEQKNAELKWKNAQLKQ

O6-bA = target: T56, O6-bA; experiment: two-hybrid library CCNG1
T56 chain: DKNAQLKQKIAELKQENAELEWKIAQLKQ

O13-bA = target: T57, O13-bA; experiment: two-hybrid library CCNG1
T57 chain: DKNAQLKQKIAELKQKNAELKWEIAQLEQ

O9-bA = target: T58, O9-bA; experiment: two-hybrid library CCNG1
T58 chain: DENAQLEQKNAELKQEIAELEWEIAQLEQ

Core_NIII-es_KEEE = target: T59, Core_NIII-es_KEEE; experiment: two-hybrid library CCmax; settings: mean of both orientations
T59 chain: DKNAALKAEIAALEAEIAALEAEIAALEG

B1: P5p (peptide)
chain: DENAALEEKIAQLKQKNAALKEEIQALEY
interaction score (P6p): 1.9

B5: 4H1347-bH (peptide)
chain: DENQELEKKIEELKREIWELEKENQELER
interaction score (4H2691-bH): -0.275
interaction score (4H496-bH): -0.415
interaction score (4H1347-bH): 0.364
interaction score (4H145-bH): -0.368
interaction score (4H342-bH): -0.391
interaction score (4H3632-bH): 1.71
interaction score (4H2619-bH): -0.987
interaction score (4H3070-bH): -0.395

B6: O1-bA (peptide)
chain: DKNAQLKQENAELEQEIAELEWEIAQLEQ
interaction score (O14-bA): -1.02
interaction score (O5-bA): -1.23
interaction score (O10-bA): 1.21
interaction score (O7-bA): -0.0848
interaction score (O11-bA): -1.05
interaction score (O8-bA): -1.59
interaction score (O1-bA): -0.889
interaction score (O2-bA): 2.31
interaction score (O3-bA): -1.08
interaction score (O16-bA): -0.581
interaction score (O12-bA): -0.825
interaction score (O15-bA): -1.03
interaction score (O4-bA): -1.53
interaction score (O6-bA): -0.599
interaction score (O13-bA): 0.415
interaction score (O9-bA): -0.823

More lines, now with the values ahead:

interaction score (Core_NINN-es_KKEK): 1.78
B2: Core_NINN-es_EEKE (peptide)
chain: DENAALEAEIAALEAKNAALKAENAALEG

interaction score (4H477-bA): -1.12
interaction score (4H319-bA): -1.51
interaction score (4H2503-bA): -1.32
interaction score (4H492-bA): -1.44
interaction score (4H2134-bA): 1.92
interaction score (4H121-bA): -0.103
interaction score (4H2692-bA): -0.366
interaction score (4H2223-bA): 0.764
interaction score (4H2717-bA): -0.497
interaction score (4H2143-bA): -0.624
interaction score (4H2438-bA): 1.56
interaction score (4H2915-bA): -0.0952
interaction score (4H182-bA): -1.13
interaction score (4H3057-bA): 0.0584
interaction score (4H2588-bA): -0.283
interaction score (4H741-bA): -1.09
interaction score (4H2839-bA): 0.693
interaction score (4H2473-bA): -1.11
interaction score (4H3277-bA): -1.51
interaction score (4H40-bA): -0.579
interaction score (4H348-bA): -1.19
interaction score (4H2444-bA): -3.87
B3: 4H121-bA (peptide)
chain: DEIAQLEQEIAELKQKNAELKWEIAQLEQ

interaction score (4H2619-bN): -1.35
interaction score (4H344-bN): 0.965
interaction score (4H2745-bN): -0.112
interaction score (4H3961-bN): 1.37
interaction score (4H2568-bN): 0.836
interaction score (4H1046-bN): -0.38
interaction score (4H1072-bN): -0.367
interaction score (4H3907-bN): -0.5
interaction score (4H363-bN): -0.252
interaction score (4H470-bN): 0.0233
B4: 4H1046-bN (peptide)
chain: DENQQLEQEIQELEQENQELEWKIQELKQ

interaction score (Core_NIII-es_KEEE): 2.17
B7: Core_NIII-es_EKKK (peptide)
chain: DENAALEAKIAALKAKIAALKAKIAALKG
